The target in experiment [1] is humanized TFR1 protein (engineered mouse TFR1 after humanization) (chimeric mouse/human) (UniProt P02786). Nature of the experiment: flow cytometry, B cells of TFR1 gene humanized heterozygous mouse (carry both mouse and humanized TFR1) stained with APC anti-human CD71. In general terms: In flow cytometry, cells or beads pass a laser one at a time.
The target in experiment [2] is mouse TFR1 (NP_035768.1) (mouse) (UniProt Q62351). Put plainly: flow cytometry, C57BL/6 wild-type mouse B cells stained with APC anti-human CD71.
Experiment [3] addresses humanized TFR1 protein (engineered mouse TFR1 after humanization) (chimeric mouse/human) (UniProt P02786). Nature of the experiment: flow cytometry, bone marrow erythroid cells of TFR1 gene humanized homozygous mouse stained with APC anti-human CD71.
For experiment [4], the target named is mouse TFR1 (NP_035768.1) (mouse) (UniProt Q62351). Put plainly: flow cytometry, C57BL/6 wild-type bone marrow erythroid cells stained with APC anti-human CD71.
Experiment [5] shares this target. Put plainly: flow cytometry, B cells of TFR1 gene humanized heterozygous mouse (carry both mouse and humanized TFR1) stained with PE anti-mouse CD71.
The target of experiment [6] is humanized TFR1 protein (engineered mouse TFR1 after humanization) (chimeric mouse/human) (UniProt P02786). Nature of the experiment: flow cytometry, bone marrow erythroid cells of TFR1 gene humanized homozygous mouse stained with PE anti-mouse CD71.
In experiment [7] the target is mouse TFR1 (NP_035768.1) (mouse) (UniProt Q62351). Put plainly: flow cytometry, C57BL/6 wild-type mouse B cells stained with PE anti-mouse CD71.
The target is the same in experiment [8]. Nature of the experiment: flow cytometry, C57BL/6 wild-type bone marrow erythroid cells stained with PE anti-mouse CD71.

Sequence of UniProt Q62351 (Q62351 whole entry): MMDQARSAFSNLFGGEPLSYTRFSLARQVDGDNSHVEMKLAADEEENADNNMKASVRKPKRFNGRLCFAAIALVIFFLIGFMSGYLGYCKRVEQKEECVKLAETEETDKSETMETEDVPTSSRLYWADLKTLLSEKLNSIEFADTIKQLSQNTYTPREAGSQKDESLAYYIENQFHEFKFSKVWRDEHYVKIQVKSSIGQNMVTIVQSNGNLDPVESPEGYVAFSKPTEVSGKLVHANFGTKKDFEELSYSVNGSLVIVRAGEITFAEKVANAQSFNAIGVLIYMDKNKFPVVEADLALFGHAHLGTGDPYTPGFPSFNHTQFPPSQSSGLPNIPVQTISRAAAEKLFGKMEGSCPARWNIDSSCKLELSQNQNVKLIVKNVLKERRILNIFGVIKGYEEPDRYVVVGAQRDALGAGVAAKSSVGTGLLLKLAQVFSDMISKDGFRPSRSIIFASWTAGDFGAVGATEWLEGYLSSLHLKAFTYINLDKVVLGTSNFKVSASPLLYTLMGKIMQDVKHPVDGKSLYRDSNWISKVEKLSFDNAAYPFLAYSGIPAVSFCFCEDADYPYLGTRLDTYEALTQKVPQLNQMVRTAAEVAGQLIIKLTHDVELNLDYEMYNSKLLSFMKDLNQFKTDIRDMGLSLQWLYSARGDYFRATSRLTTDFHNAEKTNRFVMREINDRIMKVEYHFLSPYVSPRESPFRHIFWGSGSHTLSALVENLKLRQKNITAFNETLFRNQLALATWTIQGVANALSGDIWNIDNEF
Sequence of UniProt P02786 (P02786 other isoform, or with tags, fused parts or gaps mutant): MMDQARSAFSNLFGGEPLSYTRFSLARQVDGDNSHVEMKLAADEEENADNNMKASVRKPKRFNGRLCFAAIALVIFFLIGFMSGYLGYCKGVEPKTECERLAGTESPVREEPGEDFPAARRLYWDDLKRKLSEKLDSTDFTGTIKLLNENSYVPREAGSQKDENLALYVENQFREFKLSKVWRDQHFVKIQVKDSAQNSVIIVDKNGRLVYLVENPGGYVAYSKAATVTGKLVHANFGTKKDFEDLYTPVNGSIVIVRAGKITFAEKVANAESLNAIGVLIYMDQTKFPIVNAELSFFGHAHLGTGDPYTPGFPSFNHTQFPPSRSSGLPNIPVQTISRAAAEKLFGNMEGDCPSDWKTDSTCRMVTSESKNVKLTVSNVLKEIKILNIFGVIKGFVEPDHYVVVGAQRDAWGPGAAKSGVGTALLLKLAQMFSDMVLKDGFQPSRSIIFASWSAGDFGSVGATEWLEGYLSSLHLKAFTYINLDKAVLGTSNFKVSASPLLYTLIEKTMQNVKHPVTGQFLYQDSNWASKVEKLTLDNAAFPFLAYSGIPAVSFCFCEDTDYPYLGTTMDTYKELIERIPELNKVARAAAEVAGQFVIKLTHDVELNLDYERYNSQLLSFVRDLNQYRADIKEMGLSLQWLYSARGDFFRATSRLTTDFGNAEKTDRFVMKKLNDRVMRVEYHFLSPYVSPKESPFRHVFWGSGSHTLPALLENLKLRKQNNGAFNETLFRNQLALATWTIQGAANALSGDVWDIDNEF

For “APC anti-human CD71 Antibody (BioLegend, Catalog number: 334107)”, the percent of B cells positive in experiment [1] was 11.3%; in experiment [2], 0.2%. Moreover, the percent of erythroid cells positive turned out to be 10.1% in experiment [3] and 0.087% in experiment [4].
As to “PE anti-mouse CD71 Antibody (BioLegend, Catalog number: 113807)”, the percent of B cells positive in experiment [5] amounted to 32.9%; in experiment [7], 50.6%. For the same substance, the percent of erythroid cells positive in experiment [6] was 0.04%; in experiment [8] it was 14.2%.

For the origin of these results see patent publication US20240268361A1.
